{"source": "paper PMC2940758", "about": "“The N-Terminal Domain of the Arenavirus L Protein Is an RNA Endonuclease Essential in mRNA Transcription”", "target": "T1, NL1 (N-terminal endonuclease domain of L protein) (Lymphocytic choriomeningitis virus …, UniProt P14240 1-196)", "T1 sequence": "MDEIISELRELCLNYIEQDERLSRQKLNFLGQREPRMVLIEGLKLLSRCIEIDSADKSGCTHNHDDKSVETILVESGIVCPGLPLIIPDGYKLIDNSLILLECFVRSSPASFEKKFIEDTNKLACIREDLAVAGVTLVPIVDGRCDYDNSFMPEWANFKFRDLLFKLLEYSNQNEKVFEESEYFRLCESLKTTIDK", "assay": "EMSA", "conditions": "protein: recombinant; tags: N-terminal His6; label: 5'-32P; unpaired", "data": [{"binder": "AUUUUGUUUUUAAUAUUUC (ssRNA)", "note": "[19-mer unstructured RNA]", "values": [{"measurement": "binding result", "result": "binds"}]}]}
